# Data as given in US20230129812A1, “COMPOSITIONS AND METHODS FOR TREATING PULMONARY HYPERTENSION” (Acceleron Pharma Inc., priority 2020, published 2023).
# Assays:
# [1] = Pharmacokinetic studies in rats; type: in vivo
# Description: The ActRIIA-hFc was very stable in pharmacokinetic studies. Rats were dosed with 1 mg/kg, 3 mg/kg, or 10 mg/kg of ActRIIA-hFc protein, and plasma levels of the protein were measured at 24, 48, 72, 144 and 168 hours. In a separate study, rats were dosed at 1 mg/kg, 10 mg/kg, or 30 mg/kg.
# [2] = Pharmacokinetics in cynomolgus monkeys; type: in vivo
# activin B [3] = target: T1, activin B (Homo sapiens, UniProt P09529); experiment: Similar Biacore binding assay (Example 1)
# T1 sequence (P09529 293-407): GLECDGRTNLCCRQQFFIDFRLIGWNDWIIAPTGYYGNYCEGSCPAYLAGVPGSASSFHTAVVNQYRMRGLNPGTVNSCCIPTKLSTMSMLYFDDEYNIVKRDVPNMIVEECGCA
# BMP6 [4] = target: T2, BMP6 (Homo sapiens, UniProt P22004); experiment: Similar Biacore binding assay (Example 1)
# T2 sequence (P22004 375-513): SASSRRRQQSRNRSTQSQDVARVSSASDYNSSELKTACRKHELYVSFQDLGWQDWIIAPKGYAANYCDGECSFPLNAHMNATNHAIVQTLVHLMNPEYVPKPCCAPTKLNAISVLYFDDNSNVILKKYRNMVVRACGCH
# BMP10 [5] = target: T3, BMP10 (Homo sapiens, UniProt O95393); experiment: Similar Biacore binding assay (Example 1)
# T3 sequence (O95393 317-424): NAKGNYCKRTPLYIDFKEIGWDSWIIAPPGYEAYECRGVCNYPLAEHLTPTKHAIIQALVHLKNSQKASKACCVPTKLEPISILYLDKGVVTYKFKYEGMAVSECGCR
# GDF8 [6] = target: T4, GDF8 (Homo sapiens, UniProt O14793); experiment: Similar Biacore binding assay (Example 1)
# T4 sequence (O14793 267-375): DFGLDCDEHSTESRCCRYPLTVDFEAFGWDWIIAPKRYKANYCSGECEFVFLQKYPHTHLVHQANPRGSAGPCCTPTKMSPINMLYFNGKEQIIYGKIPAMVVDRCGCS
# BMP10 [7] = target: T3, BMP10; experiment: Biacore ligand binding profile, ActRIIA-Fc:ALK4-Fc heterodimer vs homodimers, anti-Fc capture (Example 17, Table 14)
# Description: (§1) A Biacore™-based binding assay was used to compare ligand binding selectivity of the ActRIIA-Fc:ALK4-Fc heterodimeric complex described above with that of ActRIIA-Fc and ALK4-Fc homodimeric complexes. The ActRIIA-Fc:ALK4-Fc heterodimer, ActRIIA-Fc homodimer, and ALK4-Fc homodimer were independently captured onto the system using an anti-Fc antibody. Ligands were injected and allowed to flow over the captured receptor protein. Results are summarized in Table 14 below, in which ligand off-rates (kd) most indicative of effective ligand traps are denoted in bold.
# GDF3 = target: T5, GDF3 (Homo sapiens, UniProt Q9NR23); experiment: as above; conditions: ligand GDF3, Table 14
# T5 sequence (Q9NR23 251-364): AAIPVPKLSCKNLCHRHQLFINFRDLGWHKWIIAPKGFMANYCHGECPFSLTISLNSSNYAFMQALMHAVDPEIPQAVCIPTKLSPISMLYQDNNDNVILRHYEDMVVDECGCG
# Description: as §1
# activin AB = target: T6, activin AB (Homo sapiens, UniProt P08476+P09529); experiment: as above; conditions: for ka / kd: ligand Activin AB, Table 14
# T6 sequence (P08476 311-426): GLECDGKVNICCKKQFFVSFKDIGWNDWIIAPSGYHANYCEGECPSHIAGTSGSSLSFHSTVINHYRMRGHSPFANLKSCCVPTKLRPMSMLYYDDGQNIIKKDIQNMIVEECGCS
# T6 sequence (P09529 293-407): T1 sequence (P09529 293-407)
# Description: as §1
# GDF8 [8] = target: T4, GDF8; experiment: as above; conditions: ligand GDF8, Table 14
# Description: as §1
# BMP9 = target: T7, BMP9 (Homo sapiens, UniProt Q9UK05); experiment: as above; conditions: ligand BMP9, Table 14
# T7 sequence (Q9UK05 320-429): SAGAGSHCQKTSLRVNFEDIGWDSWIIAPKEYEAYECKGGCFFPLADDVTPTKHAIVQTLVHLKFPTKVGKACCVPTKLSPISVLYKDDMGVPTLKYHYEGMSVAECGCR
# Description: as §1
# BMP7 = target: T8, BMP7 (Homo sapiens, UniProt P18075); experiment: as above; conditions: ligand BMP7, Table 14
# T8 sequence (P18075 293-431): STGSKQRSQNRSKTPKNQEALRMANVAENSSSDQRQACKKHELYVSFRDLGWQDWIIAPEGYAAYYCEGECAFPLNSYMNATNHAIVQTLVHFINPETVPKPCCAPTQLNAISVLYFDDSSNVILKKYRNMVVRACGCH
# Description: as §1
# activin AC = target: T9, activin AC (Homo sapiens, UniProt P08476+P55103); experiment: as above; conditions: for ka / kd: ligand Activin AC, Table 14
# T9 sequence (P08476 311-426): T6 sequence (P08476 311-426)
# T9 sequence (P55103 237-352): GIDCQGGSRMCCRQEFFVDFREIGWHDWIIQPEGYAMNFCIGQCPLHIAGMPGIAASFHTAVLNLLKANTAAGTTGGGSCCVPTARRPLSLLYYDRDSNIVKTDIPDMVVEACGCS
# Description: as §1
# activin B [9] = target: T1, activin B; experiment: as above; conditions: for activin B binding: Example 17; for ka / kd: ligand Activin B, Table 14
# Description: as §1
# GDF11 = target: T10, GDF11 (Homo sapiens, UniProt O95390); experiment: as above; conditions: for ka / kd: ligand GDF11, Table 14
# T10 sequence (O95390 299-407): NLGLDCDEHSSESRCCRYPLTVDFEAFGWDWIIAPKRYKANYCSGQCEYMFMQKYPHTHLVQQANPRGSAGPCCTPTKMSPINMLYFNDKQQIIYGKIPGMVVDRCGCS
# Description: as §1
# BMP6 [10] = target: T2, BMP6; experiment: as above; conditions: ligand BMP6, Table 14
# Description: as §1
# activin A = target: T11, activin A (Homo sapiens, UniProt P08476); experiment: as above; conditions: for ka / kd: ligand Activin A, Table 14
# T11 sequence (P08476 311-426): T6 sequence (P08476 311-426)
# Description: as §1
# [11] = initial administration of 1 mg/kg
# [12] = initial administration of 10 mg/kg
Substance,"kd (BMP10 [7]; ligand BMP10, Table 14)",ka (GDF3) [M⁻¹ s⁻¹],kd (GDF3) [s⁻¹],ka (activin AB) [M⁻¹ s⁻¹],kd (activin AB) [s⁻¹],ka (GDF8 [8]) [M⁻¹ s⁻¹],kd (GDF8 [8]) [s⁻¹],ka (BMP7) [M⁻¹ s⁻¹],kd (BMP7) [s⁻¹],ka (activin AC) [M⁻¹ s⁻¹],kd (activin AC) [s⁻¹],activin B binding (activin B [9]),ka (activin B [9]) [M⁻¹ s⁻¹],kd (activin B [9]) [s⁻¹],ka (GDF11) [M⁻¹ s⁻¹],kd (GDF11) [s⁻¹],ka (BMP6 [10]) [M⁻¹ s⁻¹],kd (BMP6 [10]) [s⁻¹],ka (activin A) [M⁻¹ s⁻¹],kd (activin A) [s⁻¹],other results
ActRIIA-hFc: extracellular domain of human ActRIIa fused to a human Fc domain with a minimal linker; homodimer,–,–,–,–,–,–,–,–,–,–,–,–,–,–,–,–,–,–,–,–,"serum half-life [1]: 11 to 14 days; circulating levels of the drug after two weeks [1, 11]: 11 µg/mL; circulating levels of the drug after two weeks [1, 12]: 110 µg/mL; plasma half-life [2]: greater than 14 days; circulating levels of the drug [2, 11]: 25 µg/mL; circulating levels of the drug [2, 12]: 304 µg/mL; circulating levels of the drug ([2]; initial administration of 30 mg/kg): 1440 µg/mL; affinity for activin B (activin B [3]): high to moderate affinity; affinity for BMP6 (BMP6 [4]): high to moderate affinity; affinity for BMP10 (BMP10 [5]): high to moderate affinity; affinity for GDF8 (GDF8 [6]): high to moderate affinity"
ActRIIA-Fc homodimer: ActRIIA-Fc homodimeric complex used as comparator in Example 17,0.0025 s⁻¹,1.5e+06,0.0036,2.8e+07,0.00026,1.4e+06,0.0014,8.9e+06,0.033,2.2e+07,0.0079,highest affinity,1.1e+07,0.00011,7.3e+07,0.00092,2.7e+08,0.022,1.4e+07,0.00062,"ka (BMP10 [7]; ligand BMP10, Table 14): 2.9e+07 M⁻¹ s⁻¹; kd (BMP9): Transient*"
"ActRIIA-Fc:ALK4-Fc heterodimer: soluble heteromeric complex of extracellular domains of human ActRIIA and human ALK4, each separately fused to an Fc domain with a linker",Transient*,4.9e+07,0.0048,1.8e+07,0.00023,1.8e+07,0.0028,2e+07,0.072,3.2e+06,0.00054,reduced affinity (albeit still within the high-affinity range),9.5e+06,0.00048,3e+07,0.00065,5.4e+06,0.012,7.4e+06,0.00024,BMP10 binding (BMP10 [7]; Example 17): markedly reduced binding; activin AB binding (activin AB; Example 17): strong binding; KD (BMP9): No binding; activin AC binding (activin AC; Example 17): particularly enhanced binding; GDF11 binding (GDF11; Example 17): strong binding; activin A binding (activin A; Example 17): enhanced binding
